Results from patent US20190040156A1 (Eli Lilly, published 2019).

Experiments:
[1] = biological target: non-cleavable form of human membrane TNFα on CHO cells (human, UniProt P01375 1-233); test: cell-based or functional assay
human TNFα [2] = biological target: T1, human TNFα (human, UniProt P01375 77-233); test: cell-based or functional assay
human IL-23 [3] = biological target: T2, human IL-23 (human, UniProt Q9NPF7 20-189; P29460 23-328); test: cell-based or functional assay
T2 sequence (looked up) 1: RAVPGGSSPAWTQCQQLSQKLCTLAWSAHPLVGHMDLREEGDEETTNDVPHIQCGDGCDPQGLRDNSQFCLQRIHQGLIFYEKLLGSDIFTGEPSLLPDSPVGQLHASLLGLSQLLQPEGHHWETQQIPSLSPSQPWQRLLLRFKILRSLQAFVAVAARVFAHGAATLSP
T2 sequence (looked up) 2: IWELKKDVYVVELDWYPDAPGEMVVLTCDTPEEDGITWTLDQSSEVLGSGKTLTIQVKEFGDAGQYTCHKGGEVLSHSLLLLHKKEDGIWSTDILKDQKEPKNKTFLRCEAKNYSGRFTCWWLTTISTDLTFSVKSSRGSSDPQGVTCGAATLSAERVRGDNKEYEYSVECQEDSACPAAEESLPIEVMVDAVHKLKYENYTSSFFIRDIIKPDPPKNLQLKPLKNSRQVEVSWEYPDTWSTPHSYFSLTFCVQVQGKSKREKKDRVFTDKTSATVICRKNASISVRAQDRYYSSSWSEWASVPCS

[4] = biological target: human FcγRIIIa (V158) on Jurkat NFAT-FF reporter cells (human, UniProt P08637 17-254); test: cell-based or functional assay
human TNFα [5] = biological target: T1, human TNFα; test: SPR, Biacore T200, antibody captured on protein A, antigen as analyte, 37 °C, 1:1 model, n=3
Procedure: (§1) A CM4 chip (Biacore P/N BR-100534) containing immobilized protein A (generated using standard NHS-EDC amine coupling) on all four flow cells is used to employ a capture methodology. IgG bispecific antibody samples are prepared by dilution of 5 μg/mL into running buffer and approximately 100-150 RU is captured on the flow cells. […] Human TNFα are prepared at final concentrations of 50.0, 25.0, 12.5, 6.25, 3.12, 1.56, 0.78, 0.39, 0.19 and 0 (blank) nM by dilution into running buffer.
(§2) Each analysis cycle consists of (1) capturing antibody samples on flow cells (Fc3); (2) injection of each human IL-23 concentration over the flow cells at 80 μL/min for 200 seconds followed by return to buffer flow for 900 seconds to monitor dissociation phase; (3) injection of each human TNFα concentration over the flow cells at 80 µL/min for 200 seconds followed by return to buffer flow for 900 seconds to monitor dissociation phase; (4) regeneration of chip surfaces with injection of 10 mM glycine, pH 2.0, for 30 seconds at 50 μL/min over all flow cells; and (5) equilibration of chip surfaces with a 50 μL (60-sec) injection of HBS-EP+ running buffer. Data are processed using standard reference-subtracted method fit to a 1:1 binding model using Biacore T200 Evaluation software, version 1.0, to determine the association rate (kₒₙ, M⁻¹s⁻¹ units), dissociation rate (koff, s⁻¹ units), and RUₘₐₓ (RU units). The equilibrium dissociation constant (KD) is calculated from the relationship KD=koff/kₒₙ, and is in molar units.

human IL-23 [6] = biological target: T2, human IL-23; test: as above
Procedure: as §1, §2

human FcγRIIIa (CD16a) = biological target: T3, human FcγRIIIa (CD16a) (human, UniProt P08637 17-208); test: SPR, Biacore T200, antibody captured on protein A, FcγR as analyte, 37 °C, N=3
T3 construct: Soluble analyte in SPR
Procedure: (§3) A CM5 chip (Biacore P/N BR-100-50) containing immobilized protein A (generated using standard NHS-EDC amine coupling) on all four flow cells is used to employ a capture methodology. IgG bispecific antibody samples are prepared by dilution of approximately 5 μg/mL into running buffer and approximately 300 RU is captured on the flow cells. Human FcγRI (produced from transient CHO cells and purified using IMAC and size exclusion chromatography) is prepared at final concentrations of 200.00, 100.00, 50.00, 25.00, 12.50, 6.25, 3.12, 1.56, and 0.78 nM by two-fold serial dilution into running buffer. Human FcγRIIa, FcγRIIb and FcγRIIIa (produced from transient CHO cells and purified using IMAC and size exclusion chromatography) are prepared at final concentrations of 10,000.0, 5,000, 2,500, 1,250, 625, 313, 157, 78, and 39 nM by two-fold serial dilution into running buffer.
(§4) Each analysis cycle consists of: (1) capturing antibody samples on flow cells; (2) injection of each human FcγRI, FcγRIIa, FcγRIIb and FcγRIIIa concentration over the flow cells at 40 μL/min for 60 seconds followed by return to buffer flow for 120 seconds to monitor dissociation phase; (3) regeneration of chip surfaces with injection of 10 mM glycine, pH 2.0. for 30 seconds at 50 μL/min over all flow cells; and (4) equilibration of chip surfaces with a 50 μL (60-sec) injection of HBS-EP+ running buffer. Data are processed using standard reference-subtracted method fit to a 1:1 binding model using Biacore T200 […] Evaluation software, version 1.0, to determine the equilibrium dissociation constant (KD) which is calculated from the relationship KD=koff/kₒₙ, and is in molar units.

human FcγRIIb (CD32b) = biological target: T4, human FcγRIIb (CD32b) (human, UniProt P31994 43-217, limits assumed); test: as above
T4 construct: Soluble analyte in SPR
T4 sequence (looked up): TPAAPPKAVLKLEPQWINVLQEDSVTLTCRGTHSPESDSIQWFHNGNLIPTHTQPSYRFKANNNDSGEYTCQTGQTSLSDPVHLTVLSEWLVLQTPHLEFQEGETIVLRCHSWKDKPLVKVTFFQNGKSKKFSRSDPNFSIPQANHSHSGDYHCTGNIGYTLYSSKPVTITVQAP
Procedure: as §3, §4

human FcγRIIa (CD32a) = biological target: T5, human FcγRIIa (CD32a) (human, UniProt P12318 34-217, limits assumed); test: as above
T5 construct: Soluble analyte in SPR
T5 sequence (looked up): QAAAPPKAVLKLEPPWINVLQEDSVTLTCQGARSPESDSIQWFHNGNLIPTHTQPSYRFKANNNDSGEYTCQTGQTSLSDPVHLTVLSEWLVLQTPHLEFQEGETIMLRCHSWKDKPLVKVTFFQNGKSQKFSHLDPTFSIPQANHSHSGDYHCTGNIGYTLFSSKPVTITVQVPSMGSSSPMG
Procedure: as §3, §4

human FcγRI (CD64) = biological target: T6, human FcγRI (CD64) (human, UniProt P12314 16-288, limits assumed); test: as above
T6 construct: Soluble analyte in SPR
Procedure: as §3, §4

[7] = biological target: T7, human complement component C1q (human, UniProt P02745 23-245; P02746 28-253; P02747 29-245); test: ELISA, antibody coated on the plate (10 to 0.19 µg/mL), human C1q at 10 µg/mL, anti-C1q-HRP detection
T7 construct: Bought protein; also called human C1q
T7 sequence (P02745 23-245 limits assumed, chain 1 of 3): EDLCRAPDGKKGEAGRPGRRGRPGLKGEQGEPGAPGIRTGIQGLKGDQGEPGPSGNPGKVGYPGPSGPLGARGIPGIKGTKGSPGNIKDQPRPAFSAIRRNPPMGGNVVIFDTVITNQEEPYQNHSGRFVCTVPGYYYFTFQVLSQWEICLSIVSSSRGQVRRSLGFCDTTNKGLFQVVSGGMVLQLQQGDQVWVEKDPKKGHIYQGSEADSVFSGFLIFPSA
T7 sequence (P02746 28-253 limits assumed, chain 2 of 3): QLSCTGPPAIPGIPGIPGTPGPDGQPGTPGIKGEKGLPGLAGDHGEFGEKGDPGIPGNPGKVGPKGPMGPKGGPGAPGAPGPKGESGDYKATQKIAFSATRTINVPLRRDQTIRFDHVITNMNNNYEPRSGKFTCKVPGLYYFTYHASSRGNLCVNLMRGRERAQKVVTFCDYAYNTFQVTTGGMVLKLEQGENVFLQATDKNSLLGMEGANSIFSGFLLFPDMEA
T7 sequence (P02747 29-245 limits assumed, chain 3 of 3): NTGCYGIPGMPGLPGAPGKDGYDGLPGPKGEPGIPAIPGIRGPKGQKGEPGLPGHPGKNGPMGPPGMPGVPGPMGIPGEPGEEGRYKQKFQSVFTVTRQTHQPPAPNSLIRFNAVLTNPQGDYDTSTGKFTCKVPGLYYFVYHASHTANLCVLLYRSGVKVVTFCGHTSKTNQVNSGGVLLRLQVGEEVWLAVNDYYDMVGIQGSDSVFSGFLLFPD
Procedure: Plates are incubated overnight at 4° C. with coating agent (to coat wells with antibody) followed with two hours of blocking (casein, 200 μL) at room temperature and then three washes with wash buffer (1×TBE with 0.05% Tween 20).
100 μL of human C1q (10 μg/mL) (MS Biomedical) in casein blocking reagent is added to each well and plates are incubated for 3 hours at room temperature. Following incubation plates are washed three times followed by addition of 100 μL/well (at 1:800 dilution) of Sheep anti-human C1q-HRP (Abcam #ab46191) in casein blocker. Plates are incubated for 1 hour at RT. Following incubation, plates are washed 6 times with wash buffer, and 100 μL/well of TMB Substrate (Pierce) is added to each well. Plates are incubated for 7 minutes followed by addition of 100 μL of 1.0N HC1 to each well to stop the reaction. Optical density is immediately measured using a colorimetric microplate reader set to 450 nm.

T1 sequence (P01375 77-233 limits assumed): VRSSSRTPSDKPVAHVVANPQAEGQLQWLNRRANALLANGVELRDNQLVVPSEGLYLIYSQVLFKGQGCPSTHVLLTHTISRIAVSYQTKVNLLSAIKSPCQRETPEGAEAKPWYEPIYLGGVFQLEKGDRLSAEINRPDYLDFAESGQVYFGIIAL
Sequence of non-cleavable form of human membrane TNFα on CHO cells (P01375 whole entry): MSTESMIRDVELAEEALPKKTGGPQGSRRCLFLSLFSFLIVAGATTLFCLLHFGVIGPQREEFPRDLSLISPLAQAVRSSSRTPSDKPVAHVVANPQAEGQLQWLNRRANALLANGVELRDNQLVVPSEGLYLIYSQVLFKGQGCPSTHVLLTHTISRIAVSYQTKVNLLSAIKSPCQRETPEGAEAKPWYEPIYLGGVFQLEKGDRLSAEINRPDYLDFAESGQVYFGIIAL
Sequence of human FcγRIIIa (V158) on Jurkat NFAT-FF reporter cells (P08637 17-254 F176V limits assumed): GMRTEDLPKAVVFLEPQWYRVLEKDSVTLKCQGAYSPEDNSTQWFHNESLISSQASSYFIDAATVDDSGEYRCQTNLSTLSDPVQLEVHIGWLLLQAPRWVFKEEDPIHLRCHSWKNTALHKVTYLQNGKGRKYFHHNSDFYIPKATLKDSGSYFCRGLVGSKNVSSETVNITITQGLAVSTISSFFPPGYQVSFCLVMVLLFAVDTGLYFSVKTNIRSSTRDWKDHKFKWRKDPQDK
T6 sequence (P12314 16-288 limits assumed): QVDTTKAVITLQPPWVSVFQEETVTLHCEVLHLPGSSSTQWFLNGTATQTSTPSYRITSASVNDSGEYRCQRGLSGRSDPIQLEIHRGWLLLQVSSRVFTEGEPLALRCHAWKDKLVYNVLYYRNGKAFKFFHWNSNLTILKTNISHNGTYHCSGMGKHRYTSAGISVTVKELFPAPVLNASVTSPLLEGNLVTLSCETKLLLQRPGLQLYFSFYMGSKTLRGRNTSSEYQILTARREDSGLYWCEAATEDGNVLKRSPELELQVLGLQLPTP
T3 sequence (P08637 17-208 limits assumed): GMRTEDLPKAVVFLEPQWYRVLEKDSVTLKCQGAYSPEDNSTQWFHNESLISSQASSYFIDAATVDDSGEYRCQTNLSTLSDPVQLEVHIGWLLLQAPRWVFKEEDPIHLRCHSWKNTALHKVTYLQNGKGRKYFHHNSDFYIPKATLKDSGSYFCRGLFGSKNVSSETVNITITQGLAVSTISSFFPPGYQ

relative EC50, human complement-mediated effector function (CDC) on CHO cells carrying non-cleavable human membrane TNFα (T74E construct as internal standard = 1) [1]: 0.74 relative to internal standard
IC50, inhibition of IL-23-induced Stat 3 phosphorylation (luciferase) in Kit225 cells (human IL-23 [3]): 0.066 pM
Relative EC50, induction of FcγRIIIa-mediated effector function (NFAT luciferase in Jurkat cells with CHO cells carrying non-cleavable human membrane TNFα; T74E construct as internal standard = 1) [4]: 0.75 relative to internal standard
Kd (human TNFα [5]): 0.0496 nM
koff (human TNFα [5]): 0.000155 s⁻¹
kon (human TNFα [5]): 3.1e+06 M⁻¹ s⁻¹
Kd (human IL-23 [6]): 0.245 nM
koff (human IL-23 [6]): 0.000101 s⁻¹
kon (human IL-23 [6]): 412000 M⁻¹ s⁻¹
Kd (human FcγRIIIa (CD16a)): 260 nM
Kd (human FcγRIIb (CD32b)): 4000 nM
Kd (human FcγRIIa (CD32a)): 720 nM
Kd (human FcγRI (CD64)): 0.0648 nM
binding result [7]: binds
B1: exemplified IgG bispecific antibody (anti-TNFα / anti-IL23p19) (bispecific antibody)
heavy 1: not shown
light 1: not shown
heavy 2: QVQLVQSGAEVKKPGSSVKVSCKASGYPFTRYVMHWVRKAPGQGLEWMGYINPYNDGVNYNEEFKGRVTITADTSTSTAYMELSSLRSEDTAVYYCARNWDTGLWGQGTTVTVSSASTKGPSVFPLAPSSKSTSGGTAALGCLVKDYFPEPVTVSWNSGALTSGVATGPAVLQSSGLYSLSSVVTVPSSSLGTQTYICNVNHKPSNTKVDKKVEPKSCDKTHTCPPCPAPELLGGPSVFLFPPKPKDTLMISRTPEVTCVVVDVSHEDPEVKFNWYVDGVEVHNAKTKPREEQYNSTYRVVSVLTVLHQDWLNGKEYKCKVSNKALPAPIEKTISKAKGQPREPQVSTLPPSREEMTKNQVSLMCLVYGFYPSDIAVEWESNGQPENNYKTTPPVLDSDGSFFLYSVLTVDKSRWQQGNVFSCSVMHEALHNHYTQKSLSLSPG
light 2: RIQMTQSPSSLSASVGDRVTITCKASDHIGKFLTWYQDKPGKAPKLLIYGATSKLTGVPSRFSGSGSGTDFTLTISSLQPEDFATYYCQQYWSTPFTFGGGTKVEIKGQPKAAPSVTLFPPSSEELQANKATLVCYISDFYPGAVTVAWKADSSPVKAGVETTTPSKQSNNKYAAWSYLSLTPEQWKSHRSYSCQVTHEGSTVEKTVAPTEC
modifications: N-terminal glutamine (residue 1) may be converted to pyroglutamic acid; C-terminal lysine (residue 445) may be truncated post-translationally; C-terminal lysine (residue 451) may be truncated post-translationally
notes: Heterodimeric IgG1 of four different chains; also called exemplified bispecific antibody; IgG bispecific antibody of the present invention
IC50, inhibition of killing of L929 cells by CHO cells carrying non-cleavable membrane bound human TNFα (MTT) [1]: 3.99 nM
IC50, inhibition of soluble human TNFα-induced killing of L929 cells (MTT) (human TNFα [2]): 0.32 nM
